# Source: PMC11613296
# Target: Tau (2N4R Tau; Tau(291–391)) 2-441 (UniProt P10636)
# Experiment: ELISA, immobilised Tau(291–391), soluble 2N4R Tau
# Conditions: reference: unmodified (WT) Tau(291–391)
Substance,binding against the reference (sites S356),binding against the reference (sites S352)
Tau (2N4R Tau; Tau(291–391)) 291-391 (from UniProt P10636-8) pS356 Tau(291–391),weaker,
Tau (2N4R Tau; Tau(291–391)) 291-391 (from UniProt P10636-8) pS352 Tau(291–391),,weaker
